B1: NatT toxin (PA1030), His-tagged, wild type (enzyme)
chain: SEIWRQCKGERHIRPLQGRLVRLVESQEQVATLQLVDTLEEQALLEELLESSKPPVPADAEPLHYLLKTPFRYPPLRWGSRFGRRHEPSLFYAALKLETAMAESAYYRCVLWSGMVVPPPSGRILSEHASFEAGWKVERGIRLQAPPFSDHEAALTDIADYRAPQELGSAMRSAGVQAFEYRSARCPERGCNVALFTPAAFTEKRPRNLTPWLCETTAGYVAFKPAHVPGSPKIFSWELFLVDGKLPHPA
notes: also called NAD+ degrading toxin; RES domain toxin; source: E. coli BL21 (DE3), pRSF-Duet-1, co-expressed with NatR, purified as a complex (HisTrap, SEC)

Tests used:
[1] = target: NatT toxin (PA1030), His-tagged, wild type (Pseudomonas aeruginosa) (UniProt Q9I4U4); assay: mass photometry; co-purified NatR-NatT complexes at a final concentration of 10 nM, 50 mM Bicine pH 8.5, 50 mM KCl, Refeyn OneMP
[2] = target: NatR anti-toxin (PA1029), co-expressed with His-tagged NatT in E. coli (Pseudomonas aeruginosa); assay: as above
[3] = target: NatR anti-toxin (PA1029), co-expressed with His-tagged NatT in E. coli (Pseudomonas aeruginosa); assay: crystal structure; NatR-NatT wild-type complex, sitting drop, 2.5 mg/ml, 0.2 M sodium sulfate, 0.1 M Bis-Tris propane 7.5, 20% PEG 3350, 20 C
[4] = target: the molecule itself; assay: as above

| Molecule | stoichiometry N (NatR per NatT) [1] | stoichiometry N [2] | stoichiometry N [3] | stoichiometry N [4] |
| --- | --- | --- | --- | --- |
| NatR anti-toxin (PA1029), co-expressed with His-tagged NatT in E. coli (natural protein) | 2 | 2 | 2 |  |
| B1 |  |  |  | 2 |

From publication PMC11535050 (The EMBO Journal, 2024)
